Some targets named below: GORASP1, Q9BQQ3; GRIP2_3, Q9C0E4; GRIP2_7, Q9C0E4; LIMK2, P53671; MAGI1_2, Q96QZ7; NHERF4_2, Q86UT5; PARD3_3, Q8TEW0; SCRIB_1, Q14160; SCRIB_3, Q14160; TJP2_1, Q9UDY2; ARHGEF12, Q9NZN5-2; CASK, O14936; DLG2_2, Q15700; TJP1_2, Q07157.
Common to all, as to assay: holdup assay
Design in all cases: key: below the threshold = too weak to quantify, mostly under pKd 3.1 to 4

The target of a further experiment is T1, APBA3_1, O96018.
T1 sequence (O96018 389-490, limits assumed, looked up): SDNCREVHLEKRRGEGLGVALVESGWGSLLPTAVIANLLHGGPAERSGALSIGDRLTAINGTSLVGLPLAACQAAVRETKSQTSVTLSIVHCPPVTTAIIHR

Another experiment deals with T2, DFNB31_2, Q9P202.
T2 sequence (Q9P202 274-371, limits assumed, looked up): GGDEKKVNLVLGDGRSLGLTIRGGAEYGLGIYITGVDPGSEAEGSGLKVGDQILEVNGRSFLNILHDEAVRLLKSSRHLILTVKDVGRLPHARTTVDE

The target of another experiment is T3, DVL3, Q92997.
T3 sequence (Q92997 244-331, limits assumed, looked up): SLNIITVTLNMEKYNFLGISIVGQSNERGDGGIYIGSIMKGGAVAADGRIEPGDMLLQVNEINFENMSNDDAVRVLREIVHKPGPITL

In the next experiment the target is T4, HTRA3, P83110.
T4 sequence (P83110 354-453, limits assumed, looked up): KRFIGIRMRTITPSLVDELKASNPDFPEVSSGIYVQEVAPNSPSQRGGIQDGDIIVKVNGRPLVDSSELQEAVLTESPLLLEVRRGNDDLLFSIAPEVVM

The target in another experiment is T5, PARD3B_1, Q8TEW8.
T5 sequence (Q8TEW8 196-299, limits assumed, looked up): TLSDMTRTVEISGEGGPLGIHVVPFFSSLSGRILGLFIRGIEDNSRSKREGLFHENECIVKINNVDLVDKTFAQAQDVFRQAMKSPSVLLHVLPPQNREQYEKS

A further experiment concerns the target T6, PDZD7_3, Q9H5P4.
T6 sequence (Q9H5P4 857-944, limits assumed, looked up): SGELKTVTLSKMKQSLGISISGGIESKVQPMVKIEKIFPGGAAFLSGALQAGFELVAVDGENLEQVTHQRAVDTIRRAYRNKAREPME

For a further experiment, the target named is T7, SIPA1L2, Q9P2F8.
T7 sequence (Q9P2F8 945-1036, limits assumed, looked up): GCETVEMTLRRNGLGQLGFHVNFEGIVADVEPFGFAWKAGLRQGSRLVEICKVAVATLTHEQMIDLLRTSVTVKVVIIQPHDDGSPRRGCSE

The next experiment addresses T8, TJP3_3, O95049.
T8 sequence (O95049 375-456, limits assumed, looked up): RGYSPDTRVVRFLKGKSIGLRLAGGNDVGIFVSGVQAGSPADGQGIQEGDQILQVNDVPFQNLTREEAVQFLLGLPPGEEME

In another experiment the target is T9, APBA2_1, Q99767.
T9 sequence (Q99767 563-664, limits assumed, looked up): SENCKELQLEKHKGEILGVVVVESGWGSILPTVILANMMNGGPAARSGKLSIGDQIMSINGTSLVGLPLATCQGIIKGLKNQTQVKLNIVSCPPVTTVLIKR

Another experiment concerns the target T10, NHERF3_3, Q5T2W1.
T10 sequence (Q5T2W1 238-333, limits assumed, looked up): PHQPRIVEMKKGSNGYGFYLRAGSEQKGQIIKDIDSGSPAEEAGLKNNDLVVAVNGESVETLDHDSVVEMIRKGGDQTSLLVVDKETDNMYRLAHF

For a further experiment, the target named is T11, SNTA1, Q13424.
T11 sequence (Q13424 82-180, limits assumed, looked up): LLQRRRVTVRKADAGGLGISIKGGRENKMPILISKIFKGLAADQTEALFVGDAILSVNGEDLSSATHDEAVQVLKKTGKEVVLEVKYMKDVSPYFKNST

Another experiment has as its target T12, SNTG1, Q9NSN8.
T12 sequence (Q9NSN8 52-150, limits assumed, looked up): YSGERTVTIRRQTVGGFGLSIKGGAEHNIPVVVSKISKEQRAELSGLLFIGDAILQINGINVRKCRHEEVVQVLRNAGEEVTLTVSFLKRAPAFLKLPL

[1] abbreviates: plain residues with an end cap or a label only (N-terminal biotin on a linker: ado-ado).
Where [2] appears, read: plain residues with an end cap or a label only (N-terminal biotin on a linker: (peg)3).

Sequence of MAGI1_2, Q96QZ7 (Q96QZ7 456-580): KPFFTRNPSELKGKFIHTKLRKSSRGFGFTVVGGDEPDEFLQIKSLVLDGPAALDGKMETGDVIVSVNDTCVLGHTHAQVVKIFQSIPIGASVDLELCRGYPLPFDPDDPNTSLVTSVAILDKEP
Sequence of GRIP2_7, Q9C0E4 (Q9C0E4 934-1023): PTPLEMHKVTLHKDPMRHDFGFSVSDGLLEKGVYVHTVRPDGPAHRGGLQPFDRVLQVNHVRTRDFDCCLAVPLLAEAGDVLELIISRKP
Sequence of TJP2_1, Q9UDY2 (Q9UDY2 24-128): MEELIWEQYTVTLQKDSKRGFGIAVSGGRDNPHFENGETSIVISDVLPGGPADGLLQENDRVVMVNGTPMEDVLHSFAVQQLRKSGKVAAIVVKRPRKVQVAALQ
Sequence of NHERF4_2, Q86UT5 (Q86UT5 220-308): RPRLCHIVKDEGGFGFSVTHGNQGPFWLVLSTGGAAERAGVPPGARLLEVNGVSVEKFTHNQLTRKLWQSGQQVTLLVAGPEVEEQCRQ
Sequence of ARHGEF12, Q9NZN5-2 (Q9NZN5 other isoform, or with tags, fused parts or gaps): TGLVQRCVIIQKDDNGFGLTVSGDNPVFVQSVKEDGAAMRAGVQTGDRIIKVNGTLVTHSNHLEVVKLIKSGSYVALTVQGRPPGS
Sequence of SCRIB_1, Q14160 (Q14160 718-814): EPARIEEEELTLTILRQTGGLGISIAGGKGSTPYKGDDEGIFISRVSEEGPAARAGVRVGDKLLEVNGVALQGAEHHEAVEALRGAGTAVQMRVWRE
Sequence of DLG2_2, Q15700 (Q15700 189-283): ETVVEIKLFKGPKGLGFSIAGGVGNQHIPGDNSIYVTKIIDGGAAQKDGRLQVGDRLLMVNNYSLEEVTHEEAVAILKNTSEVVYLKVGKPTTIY
Sequence of GRIP2_3, Q9C0E4 (Q9C0E4 238-339): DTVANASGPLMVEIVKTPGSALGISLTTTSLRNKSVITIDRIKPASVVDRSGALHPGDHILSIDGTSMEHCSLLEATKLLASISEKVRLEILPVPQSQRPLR
Sequence of SCRIB_3, Q14160 (Q14160 999-1103): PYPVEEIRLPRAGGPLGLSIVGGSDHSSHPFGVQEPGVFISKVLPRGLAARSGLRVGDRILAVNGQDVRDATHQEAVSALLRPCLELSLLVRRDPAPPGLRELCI
Sequence of LIMK2, P53671 (P53671 143-248): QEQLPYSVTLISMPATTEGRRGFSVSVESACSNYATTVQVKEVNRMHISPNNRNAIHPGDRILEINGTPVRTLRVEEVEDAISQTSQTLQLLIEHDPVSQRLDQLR
Sequence of GORASP1, Q9BQQ3 (Q9BQQ3 1-208): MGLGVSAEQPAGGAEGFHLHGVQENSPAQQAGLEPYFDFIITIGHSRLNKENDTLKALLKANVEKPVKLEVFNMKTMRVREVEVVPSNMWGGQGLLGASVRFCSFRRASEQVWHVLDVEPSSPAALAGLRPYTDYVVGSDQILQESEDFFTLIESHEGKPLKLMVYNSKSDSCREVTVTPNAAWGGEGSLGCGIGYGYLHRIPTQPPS
Sequence of PARD3_3, Q8TEW0 (Q8TEW0 582-685): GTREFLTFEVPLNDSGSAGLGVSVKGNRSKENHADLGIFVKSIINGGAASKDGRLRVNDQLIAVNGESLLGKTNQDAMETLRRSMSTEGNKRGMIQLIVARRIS
Sequence of CASK, O14936 (O14936 487-570): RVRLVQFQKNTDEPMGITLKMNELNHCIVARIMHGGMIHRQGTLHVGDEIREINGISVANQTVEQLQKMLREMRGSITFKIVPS
Sequence of TJP1_2, Q07157 (Q07157 181-274): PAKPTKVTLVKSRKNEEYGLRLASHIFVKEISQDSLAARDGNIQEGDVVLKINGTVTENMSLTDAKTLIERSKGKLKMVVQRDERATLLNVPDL

B1: TRIM29, Q14134;Q14134-2 (peptide)
chain: KSGKQTMLVV
Regarding B1, the pKd entry with APBA3_1, O96018 (setting [1]) is “below the threshold”; with DFNB31_2, Q9P202 (setting [1]), “below the threshold”; with DVL3, Q92997 (setting [1]) it was “below the threshold”; with GORASP1, Q9BQQ3 (setting [1]), 4.34; in the experiment with GRIP2_3, Q9C0E4 (setting [1]), “below the threshold”; with GRIP2_7, Q9C0E4 (setting [1]) it was “below the threshold”. Besides, the pKd entry with HTRA3, P83110 (setting [1]) is recorded as “below the threshold”; with LIMK2, P53671 (setting [1]), “below the threshold”; with MAGI1_2, Q96QZ7 (setting [1]), “below the threshold”; with NHERF4_2, Q86UT5 (setting [1]), “below the threshold”; with PARD3B_1, Q8TEW8 (setting [1]), “below the threshold”; with PARD3_3, Q8TEW0 (setting [1]), “below the threshold”. For the same molecule, the negative logarithm of the Kd (pKd) entry with PDZD7_3, Q9H5P4 (setting [1]) was “below the threshold”; in the experiment with SCRIB_1, Q14160 (setting [1]), “below the threshold”; with SCRIB_3, Q14160 (setting [1]), “below the threshold”; with SIPA1L2, Q9P2F8 (setting [1]) it was “below the threshold”; with TJP2_1, Q9UDY2 (setting [1]), “below the threshold”; with TJP3_3, O95049 (setting [1]) it was “below the threshold”.

B2: SARS-CoV-E, P59637 (peptide)
chain: NLNSSEGVPDLLV
B2: the negative logarithm of the Kd (pKd) result is on record as “below the threshold” with APBA2_1, Q99767 (setting [2]); “below the threshold” with APBA3_1, O96018 (setting [2]); “below the threshold” with ARHGEF12, Q9NZN5-2 (setting [2]); “below the threshold” in the experiment with CASK, O14936 (setting [2]); “below the threshold” with DFNB31_2, Q9P202 (setting [2]); “below the threshold” in the experiment with DLG2_2, Q15700 (setting [2]). The pKd entry with DVL3, Q92997 (setting [2]) was “below the threshold”; with GORASP1, Q9BQQ3 (setting [2]), “below the threshold”; in the experiment with GRIP2_3, Q9C0E4 (setting [2]), “below the threshold”; in the experiment with GRIP2_7, Q9C0E4 (setting [2]) it was “below the threshold”; in the experiment with HTRA3, P83110 (setting [2]), “below the threshold”; in the experiment with LIMK2, P53671 (setting [2]), “below the threshold”. In addition, the negative logarithm of the Kd (pKd) entry in the experiment with MAGI1_2, Q96QZ7 (setting [2]) is “below the threshold”; in the experiment with NHERF3_3, Q5T2W1 (setting [2]), “below the threshold”; with NHERF4_2, Q86UT5 (setting [2]), “below the threshold”; in the experiment with PARD3B_1, Q8TEW8 (setting [2]), “below the threshold”; with PARD3_3, Q8TEW0 (setting [2]), 4.27; in the experiment with PDZD7_3, Q9H5P4 (setting [2]) it was “below the threshold”. The pKd entry in the experiment with SCRIB_1, Q14160 (setting [2]) is “below the threshold”; in the experiment with SCRIB_3, Q14160 (setting [2]) it was “below the threshold”; in the experiment with SIPA1L2, Q9P2F8 (setting [2]), “below the threshold”; with SNTA1, Q13424 (setting [2]), “below the threshold”; with SNTG1, Q9NSN8 (setting [2]), “below the threshold”; with TJP1_2, Q07157 (setting [2]), 5.18. The pKd entry is given as “below the threshold” with TJP2_1, Q9UDY2 (setting [2]) and “below the threshold” with TJP3_3, O95049 (setting [2]).

B3: SLC34A1, Q06495;Q06495-1 (peptide)
chain: LPAHHNATRL
With B3, the pKd result with APBA2_1, Q99767 (setting [1]) is “below the threshold”; in the experiment with APBA3_1, O96018 (setting [1]) it was “below the threshold”; with ARHGEF12, Q9NZN5-2 (setting [1]), 4.44; with CASK, O14936 (setting [1]), “below the threshold”; in the experiment with DFNB31_2, Q9P202 (setting [1]), “below the threshold”; with DLG2_2, Q15700 (setting [1]), “below the threshold”. Moreover, the negative-log Kd (pKd) result in the experiment with DVL3, Q92997 (setting [1]) was “below the threshold”; with GORASP1, Q9BQQ3 (setting [1]), “below the threshold”; in the experiment with GRIP2_3, Q9C0E4 (setting [1]), “below the threshold”; in the experiment with GRIP2_7, Q9C0E4 (setting [1]), “below the threshold”; with HTRA3, P83110 (setting [1]), “below the threshold”; with LIMK2, P53671 (setting [1]) it was “below the threshold”. In addition, the pKd in the experiment with NHERF3_3, Q5T2W1 (setting [1]) was 4.47; in the experiment with NHERF4_2, Q86UT5 (setting [1]), “below the threshold”; in the experiment with PARD3B_1, Q8TEW8 (setting [1]) it was 4.62; with PARD3_3, Q8TEW0 (setting [1]), “below the threshold”; in the experiment with PDZD7_3, Q9H5P4 (setting [1]) it was 4.43; with SCRIB_3, Q14160 (setting [1]) it was 4.02. Besides, the negative logarithm of the Kd (pKd) entry with SIPA1L2, Q9P2F8 (setting [1]) was “below the threshold”; with SNTG1, Q9NSN8 (setting [1]), “below the threshold”; with TJP1_2, Q07157 (setting [1]) it was “below the threshold”; in the experiment with TJP3_3, O95049 (setting [1]), “below the threshold”.

B4: PDLIM4_iso2, P50479;P50479-1 (peptide)
chain: VYPNAKVELV
As for B4, the pKd result was “below the threshold” with APBA2_1, Q99767 (setting [1]); “below the threshold” with APBA3_1, O96018 (setting [1]); “below the threshold” in the experiment with ARHGEF12, Q9NZN5-2 (setting [1]); “below the threshold” with CASK, O14936 (setting [1]); “below the threshold” with DFNB31_2, Q9P202 (setting [1]); “below the threshold” in the experiment with DLG2_2, Q15700 (setting [1]). The pKd result is “below the threshold” with DVL3, Q92997 (setting [1]); 4.48 in the experiment with GORASP1, Q9BQQ3 (setting [1]); “below the threshold” with GRIP2_3, Q9C0E4 (setting [1]); “below the threshold” with GRIP2_7, Q9C0E4 (setting [1]); “below the threshold” with LIMK2, P53671 (setting [1]); “below the threshold” with MAGI1_2, Q96QZ7 (setting [1]). For the same molecule, the negative logarithm of the Kd (pKd) entry is “below the threshold” with NHERF3_3, Q5T2W1 (setting [1]); “below the threshold” in the experiment with NHERF4_2, Q86UT5 (setting [1]); “below the threshold” with PARD3_3, Q8TEW0 (setting [1]); 3.99 in the experiment with PDZD7_3, Q9H5P4 (setting [1]); “below the threshold” in the experiment with SCRIB_1, Q14160 (setting [1]); “below the threshold” with SCRIB_3, Q14160 (setting [1]). In addition, the pKd entry in the experiment with SIPA1L2, Q9P2F8 (setting [1]) is recorded as “below the threshold”; with SNTA1, Q13424 (setting [1]) it was “below the threshold”; with SNTG1, Q9NSN8 (setting [1]) it was “below the threshold”; with TJP2_1, Q9UDY2 (setting [1]), “below the threshold”; with TJP3_3, O95049 (setting [1]), “below the threshold”.

As usually defined, the pKd is the Kd on a negative log10 scale, so that one unit is a factor of ten.
